According to PMC4191604 (Journal of Medicinal Chemistry, 2014):

Tests used:
Assay in all cases: SPR
[1] = target: T1, GBP1 GTPase (human GBP1, recombinant wild type) (human, UniProt P32455 1-592)
T1 sequence (looked up): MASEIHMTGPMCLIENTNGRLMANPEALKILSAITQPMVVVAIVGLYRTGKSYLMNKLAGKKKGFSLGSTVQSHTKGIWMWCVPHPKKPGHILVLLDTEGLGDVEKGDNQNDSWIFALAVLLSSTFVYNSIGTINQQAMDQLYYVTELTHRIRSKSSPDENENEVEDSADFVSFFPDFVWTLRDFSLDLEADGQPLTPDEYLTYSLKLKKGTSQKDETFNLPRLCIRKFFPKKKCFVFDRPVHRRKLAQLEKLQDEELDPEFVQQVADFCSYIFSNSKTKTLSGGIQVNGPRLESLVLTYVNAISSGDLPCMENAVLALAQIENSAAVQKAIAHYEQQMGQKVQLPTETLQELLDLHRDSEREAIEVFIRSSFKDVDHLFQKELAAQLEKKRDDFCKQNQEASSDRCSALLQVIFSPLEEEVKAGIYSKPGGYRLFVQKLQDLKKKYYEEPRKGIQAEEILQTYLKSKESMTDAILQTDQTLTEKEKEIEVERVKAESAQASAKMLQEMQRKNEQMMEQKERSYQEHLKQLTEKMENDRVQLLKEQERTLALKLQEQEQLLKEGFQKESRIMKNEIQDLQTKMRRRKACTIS

GBP1 mutant K51A = target: T2, GBP1 mutant K51A (human, UniProt P32455 1-592, K51A)
T2 sequence (looked up): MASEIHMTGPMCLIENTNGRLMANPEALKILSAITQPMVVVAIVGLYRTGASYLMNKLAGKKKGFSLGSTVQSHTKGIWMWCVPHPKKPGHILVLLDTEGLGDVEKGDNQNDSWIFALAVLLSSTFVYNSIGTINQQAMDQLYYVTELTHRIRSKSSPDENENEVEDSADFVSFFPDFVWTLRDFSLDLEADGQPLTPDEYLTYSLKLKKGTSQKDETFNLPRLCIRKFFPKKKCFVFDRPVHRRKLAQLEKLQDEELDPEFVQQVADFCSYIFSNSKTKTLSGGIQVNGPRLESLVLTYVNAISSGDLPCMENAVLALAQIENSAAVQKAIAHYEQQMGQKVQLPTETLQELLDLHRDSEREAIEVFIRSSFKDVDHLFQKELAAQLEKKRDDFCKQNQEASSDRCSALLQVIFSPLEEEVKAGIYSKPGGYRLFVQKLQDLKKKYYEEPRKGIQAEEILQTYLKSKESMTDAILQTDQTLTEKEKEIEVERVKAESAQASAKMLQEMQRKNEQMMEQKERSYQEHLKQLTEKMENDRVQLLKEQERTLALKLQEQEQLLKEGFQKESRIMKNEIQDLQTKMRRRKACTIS

GBP1 mutant D184A = target: T3, GBP1 mutant D184A (human, UniProt P32455 1-592, D184A)
T3 sequence (looked up): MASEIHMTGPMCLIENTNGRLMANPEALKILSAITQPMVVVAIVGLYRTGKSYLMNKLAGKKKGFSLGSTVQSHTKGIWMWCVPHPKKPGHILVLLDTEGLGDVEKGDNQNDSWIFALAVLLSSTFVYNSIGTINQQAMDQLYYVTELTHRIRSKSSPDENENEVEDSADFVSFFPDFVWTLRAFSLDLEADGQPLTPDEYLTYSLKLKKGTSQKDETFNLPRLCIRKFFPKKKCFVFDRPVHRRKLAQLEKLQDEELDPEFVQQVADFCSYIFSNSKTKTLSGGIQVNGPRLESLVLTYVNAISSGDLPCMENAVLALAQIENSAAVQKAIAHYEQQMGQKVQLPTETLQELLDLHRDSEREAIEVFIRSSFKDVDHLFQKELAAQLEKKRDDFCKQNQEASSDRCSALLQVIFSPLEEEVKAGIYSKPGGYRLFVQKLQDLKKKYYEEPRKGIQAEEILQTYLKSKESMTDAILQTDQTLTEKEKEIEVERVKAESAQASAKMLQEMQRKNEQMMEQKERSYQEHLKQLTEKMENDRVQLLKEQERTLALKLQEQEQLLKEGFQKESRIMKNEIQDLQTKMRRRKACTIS

GBP1 mutant Q72A = target: T4, GBP1 mutant Q72A (human, UniProt P32455 1-592, Q72A)
T4 sequence (looked up): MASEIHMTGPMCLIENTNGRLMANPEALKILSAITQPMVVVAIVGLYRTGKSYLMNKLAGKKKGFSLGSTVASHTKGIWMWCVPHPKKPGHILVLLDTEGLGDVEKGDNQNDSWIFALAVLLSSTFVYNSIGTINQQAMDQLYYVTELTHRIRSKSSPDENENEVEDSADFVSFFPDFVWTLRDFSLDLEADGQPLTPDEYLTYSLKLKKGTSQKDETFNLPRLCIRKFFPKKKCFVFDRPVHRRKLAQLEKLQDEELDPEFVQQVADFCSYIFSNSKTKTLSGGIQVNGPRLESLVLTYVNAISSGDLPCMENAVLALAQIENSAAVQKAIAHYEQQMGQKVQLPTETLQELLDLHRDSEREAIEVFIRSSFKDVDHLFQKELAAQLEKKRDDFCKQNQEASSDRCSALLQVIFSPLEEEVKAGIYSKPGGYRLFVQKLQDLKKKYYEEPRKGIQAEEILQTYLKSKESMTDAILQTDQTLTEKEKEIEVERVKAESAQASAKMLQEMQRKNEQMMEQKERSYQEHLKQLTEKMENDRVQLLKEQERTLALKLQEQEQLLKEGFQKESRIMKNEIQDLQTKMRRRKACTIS

Kd [1]: 67 ± 20 nM | Kd (GBP1 mutant K51A): 50 ± 10 nM | Kd (GBP1 mutant D184A): 80 ± 5 nM | Kd (GBP1 mutant Q72A): 62 ± 2 nM
B1: PIM1 (recombinant) (enzyme)
chain: not shown
